Results as given in patent EP4745153A1, “GLP-1, GIP AND GCG RECEPTOR […] USE THEREOF” (Jiangsu Hengrui Pharmaceuticals Co., Ltd., priority 2023, dated 2025).
Where two headings read alike, the source gives them in different places. Starred links: 1 amine or outer side, 2 acyl side, 3 side chain; linkers in the order of their positions; H or OH if unused. Non-standard residues stand in square brackets, D forms with d. Residues, ends and D or L forms follow the SMILES beside them. Groups on a side chain read outwards from the residue. No end group written: not given here. *: point of attachment. C20 diacid = O=C(O)CCCCCCCCCCCCCCCCCCC(=O)*; γGlu = O=C(O)[C@H](CCC(=O)[*:2])N[*:1]; αMeL = CC(C)C[C@](C)(N)C(=O)O; αMeK = C[C@](N)(CCCCN)C(=O)O; αMeS = C[C@](N)(CO)C(=O)O; AEEA = NCCOCCOCC(=O)O; Aib = CC(C)(N)C(=O)O

What was measured:
human GIPR = target: T1, human GIPR (Homo sapiens, UniProt P48546); assay: cAMP HTRF agonist activity assay in CHO-K1 cells expressing GIPR; assay type: cell-based
T1 construct: expressed in transfected cells; host or cells: CHO-K1 clonal cell line
T1 sequence (P48546 22-466): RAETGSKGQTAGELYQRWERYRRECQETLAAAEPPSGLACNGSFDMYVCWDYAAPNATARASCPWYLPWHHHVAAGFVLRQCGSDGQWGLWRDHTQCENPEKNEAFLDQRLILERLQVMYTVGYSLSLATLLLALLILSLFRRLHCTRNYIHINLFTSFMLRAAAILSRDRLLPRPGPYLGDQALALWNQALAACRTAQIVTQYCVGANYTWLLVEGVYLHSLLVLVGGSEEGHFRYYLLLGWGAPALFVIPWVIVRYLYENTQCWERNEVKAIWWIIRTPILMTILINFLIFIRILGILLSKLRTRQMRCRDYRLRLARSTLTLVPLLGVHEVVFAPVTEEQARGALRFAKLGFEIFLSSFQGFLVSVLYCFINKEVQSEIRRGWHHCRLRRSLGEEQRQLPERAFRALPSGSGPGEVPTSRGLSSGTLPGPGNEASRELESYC
Procedure, shortened: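 cAMP accumulation measured by competitive HTRF after 30 min incubation of polypeptides with 5000 receptor-expressing CHO-K1 cells/well at 37°C. Percent of maximal response versus concentration fitted to a four-parameter logistic to give relative EC50.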

[1] = Pharmacokinetics in mice after single intravenous injection; parameters: species or system C57 mice; details: mouse, in vivo, male C57 mice, single intravenous dose 200 nmol/kg, plasma
Procedure, shortened: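 Plasma concentrations were measured by positive-mode ESI LC-MS/MRM, with verapamil as internal standard, at time points from 5 min to 72 h. Samples came from three male C57 mice per compound, aged 4-6 weeks, dosed once intravenously with 200 nmol/kg in 1×PBS; PK parameters were derived with PKSolver.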

[2] = Solubility in the vehicle; assay type: physicochemical; details: stated in the summary only, no test example
[3] = target: T2, human glucose-dependent insulinotropic polypeptide receptor (human, UniProt P48546 22-466); assay: cell-based or functional assay
T2 sequence (looked up): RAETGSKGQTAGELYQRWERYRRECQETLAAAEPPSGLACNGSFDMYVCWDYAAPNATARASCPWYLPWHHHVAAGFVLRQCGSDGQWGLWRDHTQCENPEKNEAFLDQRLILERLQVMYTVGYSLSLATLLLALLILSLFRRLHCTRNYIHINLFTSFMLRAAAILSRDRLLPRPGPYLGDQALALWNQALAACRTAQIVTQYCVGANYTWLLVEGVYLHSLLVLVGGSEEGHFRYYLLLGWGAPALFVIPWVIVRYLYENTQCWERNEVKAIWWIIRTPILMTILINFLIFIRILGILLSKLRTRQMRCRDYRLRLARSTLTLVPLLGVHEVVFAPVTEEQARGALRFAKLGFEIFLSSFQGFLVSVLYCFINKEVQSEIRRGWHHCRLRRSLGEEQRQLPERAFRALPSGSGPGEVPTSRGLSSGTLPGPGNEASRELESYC

human glucagon receptor [4] = target: T3, human glucagon receptor (human, UniProt P47871 26-477); assay: cell-based or functional assay
T3 sequence (P47871 26-477): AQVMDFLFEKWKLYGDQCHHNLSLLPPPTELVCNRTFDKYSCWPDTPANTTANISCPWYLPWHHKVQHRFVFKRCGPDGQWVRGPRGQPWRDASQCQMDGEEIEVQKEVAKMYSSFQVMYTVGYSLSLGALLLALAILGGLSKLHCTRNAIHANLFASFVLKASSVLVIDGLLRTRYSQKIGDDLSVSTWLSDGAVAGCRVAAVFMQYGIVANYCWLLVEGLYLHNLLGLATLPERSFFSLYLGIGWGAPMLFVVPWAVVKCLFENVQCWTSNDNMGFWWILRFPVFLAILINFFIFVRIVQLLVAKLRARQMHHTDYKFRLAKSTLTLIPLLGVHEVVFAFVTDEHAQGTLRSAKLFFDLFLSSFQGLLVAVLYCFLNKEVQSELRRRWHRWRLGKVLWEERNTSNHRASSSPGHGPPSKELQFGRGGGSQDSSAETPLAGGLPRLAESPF

[5] = target: human glucagon-like peptide-1 receptor (human, UniProt P43220 24-463); assay: cell-based or functional assay
[6] = target: T2, human glucose-dependent insulinotropic …; assay: cell-based or functional assay; remark: listed apart in the source
human glucagon receptor [7] = target: T3, human glucagon receptor; assay: cell-based or functional assay; remark: listed apart in the source

CC[C@H](C)[C@H](NC(=O)[C@H](CC(C)C)NC(=O)[C@H](Cc1c[nH]c2ccccc12)NC(=O)[C@H](CCC(=O)O)NC(=O)[C@@H](NC(=O)[C@H](Cc1ccccc1)NC(=O)[C@H](CCC(=O)O)NC(=O)[C@](C)(CO)NC(=O)[C@H](C)NC(=O)[C@H](C)NC(=O)[C@H](CCCCN)NC(=O)[C@H](CCCCNC(=O)COCCOCCNC(=O)COCCOCCNC(=O)CC[C@H](NC(=O)CCCCCCCCCCCCCCCCCCC(=O)O)C(=O)O)NC(=O)[C@H](CCC(=O)O)NC(=O)[C@H](CC(C)C)NC(=O)[C@H](CC(C)C)NC(=O)[C@](C)(CCCCN)NC(=O)[C@H](CO)NC(=O)[C@H](Cc1ccc(O)cc1)NC(=O)[C@H](CC(=O)O)NC(=O)[C@H](CO)NC(=O)[C@@H](NC(=O)[C@H](Cc1ccccc1)NC(=O)[C@@H](NC(=O)CNC(=O)[C@H](Cc1c[nH]cn1)NC(=O)C(C)(C)NC(=O)[C@@H](N)Cc1c[nH]cn1)[C@@H](C)O)[C@@H](C)O)C(C)C)C(=O)N[C@@H](CCC(=O)O)C(=O)NCC(=O)NCC(=O)N1CCC[C@H]1C(=O)N[C@@H](CO)C(=O)N[C@@H](CO)C(=O)NCC(=O)N[C@@H](C)C(=O)N1CCC[C@H]1C(=O)N1CCC[C@H]1C(=O)N1CCC[C@H]1C(=O)N[C@@H](CO)C(N)=O [Compound 0126] (H-H[Aib]HGTFTSDYS[αMeK]LLEK([AEEA-AEEA-γGlu-C20 diacid])KAA[αMeS]EFVEWLIEGGPSSGAPPPS-NH2)
EC50 (human GIPR): 0.002 nM
AUC(0-inf) [1]: 103 µM·h
C0 [1]: 7.17 µM
clearance ([1]; read-out: CLp): 1.98 mL/h/kg
half-life ([1]; read-out: T1/2 (converted)): 10.1 h
solubility in the vehicle [2]: ≥ 20 mg/mL

B1: Compound No. 0125 (peptide)
peptide: H[Aib]HGTFTSDYSI[αMeL]LEK([AEEA-AEEA-γGlu-C20 diacid])KAAQEFVEWLLAGGPSSGAPPPS-NH2
modifications: N-terminus assumed
SMILES: CC[C@H](C)[C@H](NC(=O)[C@H](CO)NC(=O)[C@H](Cc1ccc(O)cc1)NC(=O)[C@H](CC(=O)O)NC(=O)[C@H](CO)NC(=O)[C@@H](NC(=O)[C@H](Cc1ccccc1)NC(=O)[C@@H](NC(=O)CNC(=O)[C@H](Cc1c[nH]cn1)NC(=O)C(C)(C)NC(=O)[C@@H](N)Cc1c[nH]cn1)[C@@H](C)O)[C@@H](C)O)C(=O)N[C@@](C)(CC(C)C)C(=O)N[C@@H](CC(C)C)C(=O)N[C@@H](CCC(=O)O)C(=O)N[C@@H](CCCCNC(=O)COCCOCCNC(=O)COCCOCCNC(=O)CC[C@H](NC(=O)CCCCCCCCCCCCCCCCCCC(=O)O)C(=O)O)C(=O)N[C@@H](CCCCN)C(=O)N[C@@H](C)C(=O)N[C@@H](C)C(=O)N[C@@H](CCC(N)=O)C(=O)N[C@@H](CCC(=O)O)C(=O)N[C@@H](Cc1ccccc1)C(=O)N[C@H](C(=O)N[C@@H](CCC(=O)O)C(=O)N[C@@H](Cc1c[nH]c2ccccc12)C(=O)N[C@@H](CC(C)C)C(=O)N[C@@H](CC(C)C)C(=O)N[C@@H](C)C(=O)NCC(=O)NCC(=O)N1CCC[C@H]1C(=O)N[C@@H](CO)C(=O)N[C@@H](CO)C(=O)NCC(=O)N[C@@H](C)C(=O)N1CCC[C@H]1C(=O)N1CCC[C@H]1C(=O)N1CCC[C@H]1C(=O)N[C@@H](CO)C(N)=O)C(C)C
Activity against human GIPR (EC50 nM) [3]: 0.002 nM
Activity against human GCGR (EC50 nM) (human glucagon receptor [4]): 0.071 nM

B2: Compound No. 0120 (peptide)
peptide: H[Aib]HGTFTSDYSILLEK([AEEA-AEEA-γGlu-C20 diacid])KAAQEFVEWLLAGGPSSGAPPPS-NH2
modifications: N-terminus assumed
SMILES: CC[C@H](C)[C@H](NC(=O)[C@H](CO)NC(=O)[C@H](Cc1ccc(O)cc1)NC(=O)[C@H](CC(=O)O)NC(=O)[C@H](CO)NC(=O)[C@@H](NC(=O)[C@H](Cc1ccccc1)NC(=O)[C@@H](NC(=O)CNC(=O)[C@H](Cc1c[nH]cn1)NC(=O)C(C)(C)NC(=O)[C@@H](N)Cc1c[nH]cn1)[C@@H](C)O)[C@@H](C)O)C(=O)N[C@@H](CC(C)C)C(=O)N[C@@H](CC(C)C)C(=O)N[C@@H](CCC(=O)O)C(=O)N[C@@H](CCCCNC(=O)COCCOCCNC(=O)COCCOCCNC(=O)CC[C@H](NC(=O)CCCCCCCCCCCCCCCCCCC(=O)O)C(=O)O)C(=O)N[C@@H](CCCCN)C(=O)N[C@@H](C)C(=O)N[C@@H](C)C(=O)N[C@@H](CCC(N)=O)C(=O)N[C@@H](CCC(=O)O)C(=O)N[C@@H](Cc1ccccc1)C(=O)N[C@H](C(=O)N[C@@H](CCC(=O)O)C(=O)N[C@@H](Cc1c[nH]c2ccccc12)C(=O)N[C@@H](CC(C)C)C(=O)N[C@@H](CC(C)C)C(=O)N[C@@H](C)C(=O)NCC(=O)NCC(=O)N1CCC[C@H]1C(=O)N[C@@H](CO)C(=O)N[C@@H](CO)C(=O)NCC(=O)N[C@@H](C)C(=O)N1CCC[C@H]1C(=O)N1CCC[C@H]1C(=O)N1CCC[C@H]1C(=O)N[C@@H](CO)C(N)=O)C(C)C
Activity against human GLP-1R (EC50 nM) [5]: 0.026 nM
Activity against human GIPR (EC50 nM) [6]: 0.002 nM
Activity against human GCGR (EC50 nM) (human glucagon receptor [7]): 0.121 nM

B3: Compound No. 0119 (peptide)
peptide: H[Aib]HGTFTSDYS[αMeK]ILEK([AEEA-AEEA-γGlu-C20 diacid])KAAQEFVEWLLAGGPSSGAPPPS-NH2
modifications: N-terminus assumed
SMILES: CC[C@H](C)[C@H](NC(=O)[C@](C)(CCCCN)NC(=O)[C@H](CO)NC(=O)[C@H](Cc1ccc(O)cc1)NC(=O)[C@H](CC(=O)O)NC(=O)[C@H](CO)NC(=O)[C@@H](NC(=O)[C@H](Cc1ccccc1)NC(=O)[C@@H](NC(=O)CNC(=O)[C@H](Cc1c[nH]cn1)NC(=O)C(C)(C)NC(=O)[C@@H](N)Cc1c[nH]cn1)[C@@H](C)O)[C@@H](C)O)C(=O)N[C@@H](CC(C)C)C(=O)N[C@@H](CCC(=O)O)C(=O)N[C@@H](CCCCNC(=O)COCCOCCNC(=O)COCCOCCNC(=O)CC[C@H](NC(=O)CCCCCCCCCCCCCCCCCCC(=O)O)C(=O)O)C(=O)N[C@@H](CCCCN)C(=O)N[C@@H](C)C(=O)N[C@@H](C)C(=O)N[C@@H](CCC(N)=O)C(=O)N[C@@H](CCC(=O)O)C(=O)N[C@@H](Cc1ccccc1)C(=O)N[C@H](C(=O)N[C@@H](CCC(=O)O)C(=O)N[C@@H](Cc1c[nH]c2ccccc12)C(=O)N[C@@H](CC(C)C)C(=O)N[C@@H](CC(C)C)C(=O)N[C@@H](C)C(=O)NCC(=O)NCC(=O)N1CCC[C@H]1C(=O)N[C@@H](CO)C(=O)N[C@@H](CO)C(=O)NCC(=O)N[C@@H](C)C(=O)N1CCC[C@H]1C(=O)N1CCC[C@H]1C(=O)N1CCC[C@H]1C(=O)N[C@@H](CO)C(N)=O)C(C)C
Activity against human GLP-1R (EC50 nM) [5]: 0.023 nM
Activity against human GIPR (EC50 nM) [6]: 0.005 nM
Activity against human GCGR (EC50 nM) (human glucagon receptor [7]): 0.087 nM
